Laboratory results as given in patent publication US20090291083A1, “BARB4 TARGET, ANTIBODY DESIGNATED BARB4, BARB4 RELATED ANTIBODIES, AND METHODS OF MAKING AND USING SAME” (PATRYS LIMITED, priority 2008, published 2009).

Legend:
[1] = tested on: human pancreas carcinoma cell-line BXPC-3; experiment: Immunofluorescence, endocytosis of conjugated BARB4; format: cell-based; settings: 40 μg/ml conjugated antibody, 37° C., 30 minutes after binding
Experimental: Endocytosis was determined for BARB4 on human pancreas carcinoma cell-line BXPC-3. BARB4 antibody (purified) was conjugated with Fluorescent orange 548 reactive (Fluka, Buchs, Switzerland). Conjugated BARB4 antibody at a final concentration of 40 μg/ml was directly given to 1×10^6 cells and incubated for indicated times at 37° C. Cells were harvested, rinsed and resuspended in phosphate buffer saline pH 7,4 (PBS). 100 μl of each cell suspension was fixed on slides. Finally the slides were mounted with Fluorescent Mounting Medium (DakoCytomation, Carpinteria, USA) and analyzed by confocal microscopy. The data is illustrated in FIG. 4.

[2] = tested on: membrane preparations of tumor cell line BXPC-3; experiment: Western blot on membrane preparations; format: binding, human; settings: BXPC-3 membrane preparation; FIG. 6A
Experimental: For BARB4 target assays the established, human pancreatic adenocarcinoma cell line BXPC-3 was used. The adherent cells were grown to a confluence of about 90% in RPMI 1640 culture medium (PAA, Vienna) supplemented with 10% (V/V) FCS, 1% (V/V) glutamine and 1% (V/V) streptomycin/penicillin at 37° C. and a 7% CO2 atmosphere (HERA cell incubator, Heraeus, Hanau). Sterile tissue culture dishes 145/20 (greiner bio-one, Frickenhausen) were prepared with 1 ml cell suspension containing 2−3×10^6 cells/ml (suspension medium is equivalent to culture medium described above) and 50 ml supplemented RPMI 1640 medium. After three or four days the carcinoma cells could be harvested for membrane extract preparation. For this purpose, BXPC-3 cells were washed with phosphate-buffered saline (PBS; containing 0.137 M NaCl, 0.027 M KCl, 0.065 M Na2HPO4×2H2O, 0.015 M KH2PO4) and the adherent cells were scraped off the tissue culture dishes. The cell suspension was centrifuged (1500×g for 5 minutes at room temperature). The supernatant was removed and the pellet was washed again with PBS followed by a further centrifugation step (1500×g, 5 minutes at room temperature). Afterwards the supernatant was removed again. A single cell pellet includes carcinoma cells from 10 tissue culture dishes. It was immediately used for membrane extract preparation or stored at −20° C. […]

B1: BARB4: human IgG antibody produced by hybridoma DSMZ Deposit No. DSM ACC2876; heavy chain SEQ ID NOs:1, 3, 5, 7, light chain SEQ ID NO:9 (antibody, V domains shown)
VH: QVQLVESGGGVVQPGRSLRLSCAASGFRFTTHGMHWVRQAPGKGLEWVAVISYNGRNKYYADYVNGRFTISRDDSRDTVFLQMNSLRPEDTAMYYCAKVRGDGYGDYGYFDYWGHGTLVSVSS
VL: QSALTQPRSVSGSPGQSVTISCTGTYNYVSWYQQHPGKAPKLMIFDVSRRSSGVPDRFSGSKSGNTASLTISGLQAEDEADYYCCSYGGTYLYVFGTGTTVTVLGQ
Q: B1 was tested. Which “endocytosis of antibody by cells (immunofluorescence)” value [1] did it give?
A: endocytosis

Q: And the “binding on Western blots with membrane preparations” value [2]?
A: binds to a membrane molecule with a relative molecular mass between 70 and 85 kD
